Laboratory results reported in article PMC11035981, “Activity assays of NnlA homologs suggest the natural product N-nitroglycine is degraded by diverse bacteria” (Beilstein Journal of Organic Chemistry, 2024).
One block for each molecule: values may come before it.

Legend:
Assay in all cases: SEC; analytical size exclusion, Superdex 200 Increase 10/300 GL, mobile phase 100 mM tricine, 100 mM NaCl, pH 7.5; masses from BioRad protein standards; self-association of each purified NnlA
[1] = target: NnlA homolog from Pseudonocardia spinosispora DSM 44797 (Pseudonocardia spinosispora DSM 44797)
[2] = target: N-nitroglycine lyase A (NnlA) from Variovorax sp. strain JS1663 (Variovorax sp. strain JS1663)
[3] = target: NnlA homolog from Pseudovibrio denitrificans JCM 1230 (Pseudovibrio denitrificans JCM 1230)
[4] = target: NnlA homolog from Mycobacterium sp. 1465703.0 (Mycobacterium sp. 1465703.0)
[5] = target: the molecule itself

Molecule: NnlA homolog from Pseudonocardia spinosispora DSM 44797 (enzyme)
stoichiometry N [1]: 2

Molecule: NnlA homolog from Mycobacterium sp. 1465703.0 (enzyme)
stoichiometry N [4]: 2

B1: NnlA homolog from Microbispora rosea subsp. nonnitritogenes strain NRRL B-2631 (enzyme)
chain: MTSQAEPAEAAESRIATDWGLDEWADRLIDQAGVGVTILNRHGTVMYYNKWASEHLDRRPEYIGNDVRKRHRRAVTNPRLDAMLKLFEDGRVEPVRYVARPYGKTTILVTVSPIRVDGELVGFSQIVLLKDEVQELCARFDESGRESFEREMLPNGPPAT
stoichiometry N [5]: 2

The remaining lines, values ahead:

stoichiometry N [2]: 2
Molecule: N-nitroglycine lyase A (NnlA) from Variovorax sp. strain JS1663 (enzyme)

stoichiometry N [3]: 2
Molecule: NnlA homolog from Pseudovibrio denitrificans JCM 1230 (enzyme)
